From patent EP4375293A1 (Max-Planck-Gesellschaft zur Förderung der Wissenschaften …, dated 2024)

Tests used:
[1] = biological target: SARS-CoV-2 Omicron BA.5 RBD (Omicron_BA.5_RBD-AviHis) (SARS-CoV-2 (Omicron BA.5 variant)); assay: BLI, biotinylated RBD, mass transport model fit
[2] = biological target: T1, SARS-CoV-2 Delta RBD (Delta_RBD-Avi-His) (SARS-CoV-2 (Delta variant)); assay: BLI, biotinylated RBD, mass transport model fit
[3] = biological target: SARS-CoV-2 Omicron BA.2.75 RBD (Omicron_BA.2.75_RBD-AviHis) (SARS-CoV-2 (Omicron BA.2.75 variant)); assay: BLI, biotinylated RBD, mass transport model fit
[4] = biological target: SARS-CoV-2 Omicron BA.1 RBD (Omicron_BA.1_RBD-AviHis) (SARS-CoV-2 (Omicron BA.1 variant)); assay: BLI, biotinylated RBD, mass transport model fit
[5] = biological target: SARS-CoV-2 Omicron BA.1 variant spike protein (SARS-CoV-2 (Omicron BA.1 variant)); assay: cell-based or functional assay
[6] = biological target: SARS-CoV-2 Delta variant spike protein (SARS-CoV-2 (Delta variant)); assay: cell-based or functional assay
[7] = biological target: T1, SARS-CoV-2 Delta RBD (Delta_RBD-Avi-His); assay: BLI, biotinylated RBD

Row | Binder | Kd [1] [nM] | Kd [2] [nM] | Kd [3] [nM] | Kd [4] [nM] | Lowest virus neutralizing concentration (pM; IC99) [5] [pM] | Lowest virus neutralizing concentration (pM; IC99) [6] [pM] | binding result [7]
1 | Ma28H11 (VHH, Monomeric VHH; also called M28H11) VHH: QVQLVESGGGLVQPGGSLRLSCATSGLTLDHYAIGWFLQAPGKEREGVACVSDDERSLYAPSVMGRFSISRDNAKKTFYLEMNSLKPEDTGVYYCASGPVVPGTLCRIPTVLGYDDWGQGTQVTVSS | 0.3 | 0.03 | 0.6 | 30 | > 5000 | 50 | –
2 | Ma28D01 (VHH, Monomeric VHH) VHH: QVQLVESGGGLVQPGGSLRLSCVVSELGLDYYQIGWFRQAPGKEREGVSCFRSSDEIRYYADSVKGRFTTFRDNAGTTVYLQMNSLKPEDTGVYYCAVAPQTYYHGTWYGECAAAGMDSWGKGTQVTVSS | 0.03 | 0.015 | 0.3 | 0.2 | 1700 | – | –
3 | Ma28F04 (VHH, Monomeric VHH) VHH: QVQLVESGGGLVQPGGSLRLSCVVSDLGLDYYQIGWFRQAPGKEREGVSCFRSSDEIRYYADPVKGRFTTFRDNAGTTVYLQMNSLKPEDTGVYYCAVAPQTYYHGTWYGECAAAGMDSWGKGTLVTVSS | 0.03 | 0.03 | 0.2 | 0.15 | 500 | 500 | –
4 | Ma16B06 (VHH, Monomeric VHH; also called VHH Ma16B06) VHH: QVQLVESGGGLVRTGGSLRLSCAASGSILQIWAMKWYRQAPGLQREWIATIPNSGEPFYASSVEGRFTGSRENEETVYLYLNNLEPEDTAVYYCEVNEGVPVREYWGQGTQVTVSS | 20 | – | 0.06 | 0.04 | 50 | > 5000 | no binding
